± gives the uncertainty stated by the source.
assay: amyloid nucleation score (Sup35N fusion, yeast selection) (log enrichment); library NNK3; higher = more nucleation; inactive = no reads after selection
In short: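 For the nucleation score, DiMSum gave the log enrichment of output over input reads, centred on the mode score of non-aggregating sequences. Psi-negative yeast expressing Sup35N fused to peptides of 20 random codons were induced with 100 μM copper sulfate for 24 hours and grown 7 days at 30°C on medium lacking adenine and uracil. Input and output plasmid inserts were Illumina-sequenced, and sequences with under 100 input reads were excluded.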

| Substance | amyloid nucleation score |
| --- | --- |
| LWAIMFRYSDIAKLTGWRVV | -0.069 ± 0.82 |
| LWDRHNCWGDEASFPSRPTY | inactive |
| LWDWVYFAYDRVYLVLCSSC | inactive |
| LWFCLFPPWITSCPFRLCRA | inactive |
| LWGAYLLNCGNMRYCMYISG | 0.803 ± 0.2 |
| LWIPLWNVRKVYIIGQCLT | inactive |
| LWKLSSNSYWFVSCNGLKYS | inactive |
| LWKRCRNNEAFVLMVGRRQA | inactive |
| LWLIPC | inactive |
| LWQDMRLLSGLL | inactive |
| LWSLHMESDWGVRIHSRSLI | inactive |
| LWTVNRECM | inactive |
| LWYVDTGAIILG | inactive |
| LYAWPHRTIVVVWLRILLFR | inactive |
| LYCECYSSLLCYGRLPAKTR | inactive |
| LYDDVSTVWNKKTEVGQLLN | inactive |
| LYEDYISSSMSMLLRLLSSY | inactive |
| LYFACPTLYLFRRRVNVTHP | inactive |
| LYHRAIGRSRQRENPSQKGG | -0.048 ± 0.39 |
| LYICTIVYYGQSNRYMFAGQ | inactive |
| LYLFTPVWDFNCLPFGLAYK | inactive |
| LYLPGKIY | inactive |
| LYMGSRPFSVIVVRITVGSQ | inactive |

| Substance | amyloid nucleation score |
| --- | --- |
| LYMVINYMKCVARHGTQNDR | inactive |
| LYPFSGESQA | inactive |
| LYRRVHVMGPVSHLDKLERC | inactive |
| LYRWHNLFGYTNVSSIQKYG | inactive |
| LYSAAVVNGGLCDRL | inactive |
| LYSAGLNEFLL | inactive |
| LYSSNQLFDGGMSFWNDNII | inactive |
| LYSVSAAMDTIKPLFPRGNA | inactive |
| LYVFYCVTHLHSIGPGQCLR | inactive |
| LYVSCWFDLRPSTFYLGSEF | 2.48 ± 0.054 |
| LYYRGLRQRLTPKLGRFRLC | inactive |
| MAFYQHDILTMFLYRFRDAR | inactive |
| MAGCAMRVRSYMGMKSHSEC | -0.353 ± 0.74 |
| MALLPGVAGTSYK | -0.435 ± 1.3 |
| MAPVGL | inactive |
| MASVSREAVQYNAWESMAIY | inactive |
| MCFNYCGVWASYLNRSVSFI | inactive |
| MCLVFKTEIRGLKAFCMCSF | inactive |
| MCMSVCFSK | inactive |
| MCRSNFAWSPSHK | inactive |
| MCSGAAFMRRVC | inactive |
| MCVRPLPSRLGTVGLWN | inactive |
| MCWLVWLSPRSNDCVDHRFD | -0.163 ± 0.46 |

| Substance | amyloid nucleation score |
| --- | --- |
| MCYFEYNDVNWRVLLLYLCK | inactive |
| MDGGASSREVAWWSLSNRGA | inactive |
| MDLITFGKKMREAQARILLV | inactive |
| MDRYNEPLSNWTKSSEIR | inactive |
| MDSPTGLALDG | inactive |
| MEGDLSVADSYGDQ | inactive |
| MFAADDLIPTKIVGSCF | inactive |
| MFFVRNFCQYVSRRC | 1.83 ± 0.088 |
| MFGVVTGLTLGSSTFHA | inactive |
| MFIMVRRRLT | inactive |
| MFITRVLR | inactive |
| MFMYCPCSLEDICLRFPTPV | inactive |
| MFRLVSGTEGLRLREVWC | -0.469 ± 1.1 |
| MFRTRTNNHDSVGRYLVTMN | inactive |
| MFTTSCWILKER | 0.248 ± 0.23 |
| MFVYR | inactive |
| MFYMIFIVYQSWLKNASYLC | inactive |
| MGAANSWETDKF | inactive |
| MGADGSLRALKRARS | inactive |
| MGDSVFRCLCNTYALLFPPV | inactive |
| MGFASSLSWSL | inactive |
| MGMVFHME | inactive |
| MGSYM | inactive |

| Substance | amyloid nucleation score |
| --- | --- |
| MGVYAINVRYSAERVMLVAP | inactive |
| MGYLMRALGHCSY | inactive |
| MHFRWQTFYSDN | inactive |
| MHNHMYISKEMLYNERTLSI | inactive |
| MIACNSRRCI | inactive |
| MICAGVMIGYALFYFQIWSC | inactive |
| MIFSRAISDGSFLTVFV | -0.32 ± 0.8 |
| MIGFYLILVGSHIRMYTGS | inactive |
| MIIPFLLLTMLITKSWLLIW | inactive |
| MIIYVKLPYRCLFFERHSDT | inactive |
| MIKPIIHFSGG | inactive |
| MILCCNRRLFGRRSLANLCW | inactive |
| MILFKIEELHCQHVSHCG | inactive |
| MILNWARQRGIECMAYSRVW | inactive |
| MIMINVISQCKCAGWGGNRA | 3.36 ± 0.053 |
| MIMTMTAGFFLELLW | inactive |
| MIRLNNRARRNLLRLRVDRQ | inactive |
| MKRCTVFEPLPKRRLVMYLE | inactive |
| MKVNKLRTMPCNINWQFCLP | 0.819 ± 0.11 |
| MLCRPTGRGLDGQCERLTVR | inactive |
| MLDSRYGKMCRGEW | inactive |
| MLKSTKKSRGLYMVSYTFTG | inactive |
| MLLSVRRGSLWESRPRTWLM | 0.535 ± 0.22 |

| Substance | amyloid nucleation score |
| --- | --- |
| MLLVHNRTDIFLWIDLYNSL | inactive |
| MLPFTLMQPNVLFWMIDWED | inactive |
| MLQWVESLGGICITRSVLIL | inactive |
| MLSISFLYFATTVGVDVTLG | inactive |
| MMAFTVFISEQDYSGIIFYE | inactive |
| MMDSWYVVVRYLSTLYNCDI | inactive |
| MMGSVQLVHSIEYSCMHGTS | inactive |
| MMLFNSMWDIFCLMDGLH | inactive |
| MMLFNVPKICHRLWLNLHRH | inactive |
| MMLLGVRVED | inactive |
| MMYNVMVSSRLMRLCFSRRV | inactive |
| MMYRSRFGLKMLPGLQPAIA | inactive |
| MNCDDAVDWCFII | inactive |
| MNLDVWSFMSMFNSFRVWVQ | inactive |
| MNMGYFRFNL | inactive |
| MNRKVVANSGDRDGIVRTSS | 0.278 ± 0.43 |
| MNTSDSARKSRYRARG | inactive |
| MPGLAVFGCPRRCCGFRGLV | inactive |
| MPLYCNKMGCPLGKGMHMCH | inactive |
| MPPLNNCLDPYFLVCCNMVY | inactive |
| MPTTHASLSSSFLG | inactive |
| MPYMW | 0.73 ± 0.29 |
| MPYVSKVYHYRYT | inactive |

| Substance | amyloid nucleation score |
| --- | --- |
| MRAIMWFINKDLLLTCGDDS | inactive |
| MRCILTLFSTDIICVLSCKC | inactive |
| MRFADFCRGYFRRGSYPLGF | inactive |
| MRFLWCNVCL | 2.07 ± 0.078 |
| MRGINRIDLLPG | inactive |
| MRGRFLASPGWFTFRIFFVF | 0.836 ± 0.27 |
| MRISRAVHELWILNFVTKES | -0.52 ± 1.3 |
| MRMHALAVNIGCCYTCVVVT | 0.866 ± 0.099 |
| MRMVTSCTISF | inactive |
| MRSNMFSRAGNYGQSIKELT | inactive |
| MRSRGTLHYATDSLWSLGEP | inactive |
| MRTMISYMVRVVRTHTCFLD | inactive |
| MSCICGKPTAVCI | inactive |
| MSDWLDELVGSPMSKREVCR | inactive |
| MSELWWAPSFKYQLFSHFIK | inactive |
| MSKARFRWSDNTDPFFSVGQ | 0.196 ± 0.51 |
| MSLPSSSQAYSCRWTWPRPA | inactive |
| MSSACGWEEVIGCLEVMRIG | inactive |
| MSTLEMHYGPSFSCLYNMQD | 1.89 ± 0.065 |
| MSVYRYSKAVYARIEFTSRS | inactive |
| MSYINRAPFAMSGLFCAWFD | inactive |
| MTDDRWLRRRVSPCSVRRFS | inactive |
| MTFTCFVRFPTVRYNAKGCL | inactive |

| Substance | amyloid nucleation score |
| --- | --- |
| MTRVYLMNFVLQLASTSQDS | 2.54 ± 0.065 |
| MTVPTCHNDASARLMLRLLG | inactive |
| MTVTGPQYLPWGLRHNA | inactive |
| MTWGSNFSDNGYKLEIMCYQ | inactive |
| MVFEKGFSTNNRHGGHLDEQ | inactive |
| MVFSAICITHFTKI | inactive |
| MVGAPDV | inactive |
| MVGGVHCLSSVLRRWAAGRR | -0.676 ± 1.7 |
| MVKCQWGFRL | 1.33 ± 0.12 |
| MVKGGKDHSSVGPC | inactive |
| MVKLCALSCSIALDPIQTFK | 0.426 ± 0.19 |
| MVLGMYKQ | inactive |
| MVLRVLNYFINFCATVLAGS | inactive |
| MVLYRFCIVIHWTCTV | inactive |
| MVNTKTISYWPKDSQHLRV | inactive |
| MVQRSMKARILFCKVNFLCA | 1.16 ± 0.15 |
| MVRFMLFMK | inactive |
| MVVYKNYM | inactive |
| MWKDLVVCL | 0.175 ± 0.88 |

Source: the supplement of paper PMC12042874
